Measurements from patent US5597711A, “Factor VIII binding domain of von Willebrand factor” (The Scripps Research Institute, priority 1995, dated 1997).

Tests used:
[1] = molecular target: T1, vWF-FVIII complex (Homo sapiens, UniProt P00451); assay: Dissociation of FVIII from vWF immobilized on polystyrene beads by washing; type: binding
T1 construct: The purification of FVIII from commercial factor VIII concentrate (Armour Pharmaceutical, Kankakee, IL), by immunoadsorbent chromatography; tissue Armour Pharmaceutical, Kankakee, Ill; host or cells: commercial factor VIII concentrate, both proteins purified in house by immunoadsorbent chromatography
T1 sequence (P00451 1668-2351 limits assumed): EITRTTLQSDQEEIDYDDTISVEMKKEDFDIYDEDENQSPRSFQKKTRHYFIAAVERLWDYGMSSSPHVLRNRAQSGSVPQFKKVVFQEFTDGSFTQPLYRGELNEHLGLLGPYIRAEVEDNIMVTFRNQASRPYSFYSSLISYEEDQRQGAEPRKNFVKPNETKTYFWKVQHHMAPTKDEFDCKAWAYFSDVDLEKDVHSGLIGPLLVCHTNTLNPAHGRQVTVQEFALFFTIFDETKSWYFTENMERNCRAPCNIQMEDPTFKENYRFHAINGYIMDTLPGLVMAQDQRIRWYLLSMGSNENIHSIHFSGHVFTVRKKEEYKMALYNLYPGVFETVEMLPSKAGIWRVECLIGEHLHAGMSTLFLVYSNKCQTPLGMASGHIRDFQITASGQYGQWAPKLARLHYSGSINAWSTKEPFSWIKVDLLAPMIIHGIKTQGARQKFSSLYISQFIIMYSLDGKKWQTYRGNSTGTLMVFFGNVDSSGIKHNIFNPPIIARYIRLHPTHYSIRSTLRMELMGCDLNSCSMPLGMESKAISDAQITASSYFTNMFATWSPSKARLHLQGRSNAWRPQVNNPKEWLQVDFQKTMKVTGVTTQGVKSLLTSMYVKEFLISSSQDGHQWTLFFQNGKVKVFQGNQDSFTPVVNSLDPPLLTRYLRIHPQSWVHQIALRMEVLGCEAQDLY
T1 sequence (P00451 20-759 partner limits assumed): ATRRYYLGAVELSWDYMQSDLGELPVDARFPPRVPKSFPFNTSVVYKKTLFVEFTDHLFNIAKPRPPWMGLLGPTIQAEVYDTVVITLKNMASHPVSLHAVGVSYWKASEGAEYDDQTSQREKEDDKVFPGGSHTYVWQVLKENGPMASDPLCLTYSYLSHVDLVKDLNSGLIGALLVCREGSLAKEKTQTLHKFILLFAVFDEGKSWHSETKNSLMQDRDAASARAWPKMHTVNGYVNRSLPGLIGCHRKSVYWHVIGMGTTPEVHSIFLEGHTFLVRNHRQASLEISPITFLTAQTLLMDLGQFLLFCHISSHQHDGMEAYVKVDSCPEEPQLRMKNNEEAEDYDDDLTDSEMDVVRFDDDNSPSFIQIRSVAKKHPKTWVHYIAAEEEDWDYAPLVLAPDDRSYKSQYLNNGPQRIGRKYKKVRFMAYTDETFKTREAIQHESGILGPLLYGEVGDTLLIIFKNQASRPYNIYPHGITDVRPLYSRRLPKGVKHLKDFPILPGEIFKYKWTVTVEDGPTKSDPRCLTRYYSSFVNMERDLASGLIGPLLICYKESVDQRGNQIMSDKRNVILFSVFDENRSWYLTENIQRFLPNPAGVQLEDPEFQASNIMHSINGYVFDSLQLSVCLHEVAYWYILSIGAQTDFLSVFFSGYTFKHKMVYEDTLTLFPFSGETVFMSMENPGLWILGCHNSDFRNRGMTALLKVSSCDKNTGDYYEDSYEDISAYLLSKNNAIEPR
Description: (§1) Competitive inhibition assay of FVIII binding to solid phase vWF: 50 μg of whole unreduced vWF in 1 ml of 0.01M PO4, 0.15M Nacl, 0.02% NaN3, pH 7.3 (PBS), was incubated with three 1/4 inch in diameter polystyrene beads (Pierce Chemical Company, Rockford, Ill.) per 16 mm in diameter tissue culture well for 2 hours at room temperature. The solution was removed and the wells and the beads were then blocked with 1 ml of PBS containing 0.05% Tween-20 and 3% human serum albumin for 1 hour at room temperature. The wells and the beads were stored in the blocking solution at 4° C. for 16 hours to 10 days before use. The wells and beads were then washed ×3 with PBS. 0.05% Tween-20 and incubated for 11/2 hours at room temperature with 1.3 μg of purified FVIII and 0-100 μg of the competitive ligand in 1 ml of 0.05M imidazole, 0.15M Nacl, 0.02% NaN3, pH 7.0, 3 mM CaCl. The beads then were washed ×5 with PBS 0.05% Tween-20 and incubated for 11/2 hour at room temperature with 1.5×10^6 cpm of ^125 I-monoclonal anti-FVIII antibody C2 (specific activity 3.8×10^9 cpm/mg), in 1 ml of PBS 0.05% Tween-20 containing 0.5% bovine gamma globulin. After incubation, the wells and beads were washed with PBS 0.05% Tween-20×2. The beads were then transferred to clean wells and washed an additional four times and separately counted.
54, 1093-1094 (1974), 10-20 mM EDTA according to Tran et al., Thromb. Haemostas. 50, 547-551 (1983) or 1-1.5M Nacl according to Weiss et al., Thromb. Diath. Haemorrh. 27, 212-219 (1972).

[2] = molecular target: T2, FVIII binding to solid phase vWF (Homo sapiens, UniProt P00451); assay: Competitive inhibition assay of FVIII binding to solid phase vWF; details: competitive ligand in fluid phase, 0-100 μg in 1 ml
T2 construct: The purification of FVIII from commercial factor VIII concentrate (Armour Pharmaceutical, Kankakee, IL), by immunoadsorbent chromatography; tissue Armour Pharmaceutical, Kankakee, Ill; host or cells: commercial factor VIII concentrate, both proteins purified in house by immunoadsorbent chromatography
T2 sequence (P00451 1668-2351 limits assumed): T1 sequence (P00451 1668-2351 limits assumed)
T2 sequence (P00451 20-759 partner limits assumed): T1 sequence (P00451 20-759 partner limits assumed)
Description: as §1, with “counted. […]” for “counted.”

[3] = molecular target: T3, purified FVIII (Homo sapiens, UniProt P00451); assay: Crossed immunoelectrophoresis: complex formation of vWF or vWF fragments with FVIII; type: binding; details: co-precipitation of 125I-labeled monoclonal anti-FVIII antibody
T3 construct: The purification of FVIII from commercial factor VIII concentrate (Armour Pharmaceutical, Kankakee, IL), by immunoadsorbent chromatography; tissue Armour Pharmaceutical, Kankakee, IL; host or cells: commercial factor VIII concentrate, purified in house by immunoadsorbent chromatography
T3 sequence (P00451 1668-2351 limits assumed): T1 sequence (P00451 1668-2351 limits assumed)
T3 sequence (P00451 20-759 partner limits assumed): T1 sequence (P00451 20-759 partner limits assumed)
Description: Two dimensional crossed immunoelectrophoresis of vWF was performed as described in Zimmerman et al., Immunoassays: Clinical Laboratory Techniques for the 1980's, pp. 339-349, Alan R. Liss, Inc., New York (1980), with the following modifications. Agarose was poured in a 1.5 cm strip at the bottom of a 10.2 cm×8.3 cm piece of Gelbond (FMC Corporation, Rockland, Me.). Purified vWF or fragments of vWF, FVIII, and ^125 I labeled monoclonal anti-FVIII antibody were mixed in the sample well and electrophoresed. A second gel containing 125-250 μl of rabbit serum containing polyclonal anti-vWF antibodies was then poured and the second dimension was electrophoresed at right angles to the first dimension. Autoradiographs were made of the gels and compared to Coomassie brilliant blue staining of the gels.

[4] = molecular target: T3, purified FVIII; assay: Binding of purified FVIII to vWF or SP fragment III immobilized on polystyrene beads; details: protein adsorbed on polystyrene beads; detected with 125I-labeled monoclonal anti-FVIII antibody
Description: as §1, with “counted. […]” for “counted.”

[Ca+2].[Cl-].[Cl-] [CaCl2]
dissociation of FVIII from vWF ([1]; five washings with imidazole buffered saline containing 3 mM CaCl2): no FVIII dissociation | dissociation of FVIII from vWF ([1]; five washings with imidazole buffered saline containing 0.25M CaCl2 at 37° C.): 70 ±4%

O=C(O)CN(CCN(CC(=O)O)CC(=O)O)CC(=O)O [EDTA]
dissociation of FVIII from vWF ([1]; five washings with imidazole buffered saline containing 20 mM EDTA): 66 ±5%

[Cl-].[Na+] [Nacl]
dissociation of FVIII from vWF ([1]; five washings with imidazole buffer containing 1.5M Nacl): 86 ±1%

Reduced and alkylated vWF: vWF after reduction and alkylation
inhibition of FVIII binding to immobilized vWF (in words) [2]: no inhibitory effect | complex formation with FVIII [3]: unable to bind FVIII

vWF: purified von Willebrand factor from commercial factor VIII concentrate
inhibition of FVIII binding to immobilized vWF (in words) [2]: completely inhibit | binding of purified FVIII to the immobilized protein [4]: bound | complex formation with FVIII [3]: demonstrated complex formation
